From paper PMC11582362

T1: ADAR1-dsRBD3 wild-type (dsRBD3-mid) (Homo sapiens, UniProt P55265 708-801)
T1 sequence: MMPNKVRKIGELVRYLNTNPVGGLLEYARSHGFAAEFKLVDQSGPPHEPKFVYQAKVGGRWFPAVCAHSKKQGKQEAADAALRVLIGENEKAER

T2: ADAR1-dsRBD3 interface mutant (monomeric) (Homo sapiens, UniProt P55265 708-801, V747A;D748Q;W768V;C773S)
T2 sequence: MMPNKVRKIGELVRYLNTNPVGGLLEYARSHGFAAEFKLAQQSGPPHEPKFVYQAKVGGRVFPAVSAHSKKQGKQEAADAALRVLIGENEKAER

T3: ADAR1-dsRBD3 (dsRBD3-short) (Homo sapiens, UniProt P55265 716-797)
T3 sequence: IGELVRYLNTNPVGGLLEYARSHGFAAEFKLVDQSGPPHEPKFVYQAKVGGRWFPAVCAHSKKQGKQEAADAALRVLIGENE


Assays:
[1] = target: T1, ADAR1-dsRBD3 wild-type (dsRBD3-mid); test: ITC; N = 4.15 ± 0.42; source data sheet gives 123 nM; ITC: 25 mM Na-phosphate pH 7.0, 100 mM NaCl, 2 mM 2-mercaptoethanol, 25 °C; 2.25 uM dsRNA in cell, 80 uM protein in syringe; conditions: protein: recombinant; tags: N-terminal His6 (uncleaved); chain copies: 2; blunt
[2] = target: T2, ADAR1-dsRBD3 interface mutant …; test: ITC; N = 3.60 ± 0.36; ITC: 25 mM Na-phosphate pH 7.0, 100 mM NaCl, 2 mM 2-mercaptoethanol, 25 °C; 2.25 uM dsRNA in cell, 80 uM protein in syringe; conditions: protein: recombinant; tags: N-terminal His6 (uncleaved); blunt
[3] = target: T3, ADAR1-dsRBD3 (dsRBD3-short); test: X-ray crystallography; 2.8 A; crystals from 50 mM Na cacodylate pH 6.0, 5% PEG 4000, 30 mM CaCl2, 230 mM KCl; ITC: 25 mM Na-phosphate pH 7.0, 100 mM NaCl, 2 mM 2-mercaptoethanol, 25 °C; 2.25 uM dsRNA in cell, 80 uM protein in syringe; conditions: protein: recombinant; tags: His6 removed by TEV (residual residues remain); chain copies: 2; self-duplex of 2 copies, 11 bp, 3' overhang 2 nt (CG) on each strand; overhangs pair to form a continuous pseudo-A-form helix; 3 strands per asymmetric unit

Binder | Kd [1] | Kd [2] | binding result [3]
24 bp dsRNA duplex (dsRNA) RNA 1: GGGAUCAAUAUGCUAAGCGAUCCC RNA 2: GGGAUCGCUUAGCAUAUUGAUCCC | 125 ± 25 nM | 410 ± 65 nM | –
13-nt self-complementary RNA (dsRNA) RNA 1: CGAAGCCUUCGCG RNA 2: CGAAGCCUUCGCG | – | – | binds
